Laboratory results from ChEMBL document CHEMBL3769311, “The natural flavone fukugetin as a mixed-type inhibitor for human tissue kallikreins” (Bioorg Med Chem Lett, 2016).

Columns and labels:
[1] = substrate: O=C1CC(c2ccc(O)c(O)c2)Oc2c1c(O)cc(O)c2[C@@H]1C(=O)c2c(O)cc(O)cc2O[C@H]1c1ccc(O)cc1; conditions: Homo sapiens; 2 uM
Description: Mixed-type inhibition of human tissue kallikrein-2 expressed in baculovirus infected insect cells using Abz-KLRSSQ-EDDnp as substrate assessed as substrate Km at 2 uM by Lineweaver-Burk plot analysis

[2] = substrate: O=C1CC(c2ccc(O)c(O)c2)Oc2c1c(O)cc(O)c2[C@@H]1C(=O)c2c(O)cc(O)cc2O[C@H]1c1ccc(O)cc1; conditions: Homo sapiens; 4 uM
Description: Mixed-type inhibition of human tissue kallikrein-2 expressed in baculovirus infected insect cells using Abz-KLRSSQ-EDDnp as substrate assessed as substrate Km at 4 uM by Lineweaver-Burk plot analysis

[3] = substrate: O=C1CC(c2ccc(O)c(O)c2)Oc2c1c(O)cc(O)c2[C@@H]1C(=O)c2c(O)cc(O)cc2O[C@H]1c1ccc(O)cc1; conditions: Homo sapiens; 8 uM
Description: Mixed-type inhibition of human tissue kallikrein-2 expressed in baculovirus infected insect cells using Abz-KLRSSQ-EDDnp as substrate assessed as substrate Km at 8 uM by Lineweaver-Burk plot analysis

[4] = substrate: O=C1CC(c2ccc(O)c(O)c2)Oc2c1c(O)cc(O)c2[C@@H]1C(=O)c2c(O)cc(O)cc2O[C@H]1c1ccc(O)cc1; conditions: Homo sapiens; 10 uM
Description: Mixed-type inhibition of human tissue kallikrein-2 expressed in baculovirus infected insect cells using Abz-KLRSSQ-EDDnp as substrate assessed as substrate Km at 10 uM by Lineweaver-Burk plot analysis

[5] = substrate: O=C1CC(c2ccc(O)c(O)c2)Oc2c1c(O)cc(O)c2[C@@H]1C(=O)c2c(O)cc(O)cc2O[C@H]1c1ccc(O)cc1; conditions: Homo sapiens; 2 uM; remark: listed apart in the source
[6] = substrate: O=C1CC(c2ccc(O)c(O)c2)Oc2c1c(O)cc(O)c2[C@@H]1C(=O)c2c(O)cc(O)cc2O[C@H]1c1ccc(O)cc1; conditions: Homo sapiens; 4 uM; remark: listed apart in the source
[7] = substrate: O=C1CC(c2ccc(O)c(O)c2)Oc2c1c(O)cc(O)c2[C@@H]1C(=O)c2c(O)cc(O)cc2O[C@H]1c1ccc(O)cc1; conditions: Homo sapiens; 8 uM; remark: listed apart in the source
[8] = substrate: O=C1CC(c2ccc(O)c(O)c2)Oc2c1c(O)cc(O)c2[C@@H]1C(=O)c2c(O)cc(O)cc2O[C@H]1c1ccc(O)cc1; conditions: Homo sapiens; 10 uM; remark: listed apart in the source

B1: Kallikrein-2 (Homo sapiens), P20151 (protein)
chain: MWDLVLSIALSVGCTGAVPLIQSRIVGGWECEKHSQPWQVAVYSHGWAHCGGVLVHPQWVLTAAHCLKKNSQVWLGRHNLFEPEDTGQRVPVSHSFPHPLYNMSLLKHQSLRPDEDSSHDLMLLRLSEPAKITDVVKVLGLPTQEPALGTTCYASGWGSIEPEEFLRPRSLQCVSLHLLSNDMCARAYSEKVTEFMLCAGLWTGGKDTCGGDSGGPLVCNGVLQGITSWGPEPCALPEKPAVYTKVVHYRKWIKDTIAANP
- Km [1]: 0.72 µM
- Km [2]: 0.81 µM
- Km [3]: 1.04 µM
- Km [4]: 1.2 µM
- Vmax [5]: 192 µM/s
- Vmax [6]: 144 µM/s
- Vmax [7]: 110 µM/s
- Vmax [8]: 79 µM/s
